Source: patent US20060193821, “Aptamers to the human IL-12 cytokine family and their use as autoimmune disease therapeutics” (published 2006)

What was measured:
[1] = molecular target: T1, IL-23 (mouse, p19/p40 heterodimer) (Mus musculus, UniProt Q9EQ14;P43432 SEQ:22-196,SEQ:23-335); assay: filter; 1X PBS, 0.1 mg/mL BSA, 30 min RT; settings: tags: isolated in-house; label: 32P
T1 sequence 1: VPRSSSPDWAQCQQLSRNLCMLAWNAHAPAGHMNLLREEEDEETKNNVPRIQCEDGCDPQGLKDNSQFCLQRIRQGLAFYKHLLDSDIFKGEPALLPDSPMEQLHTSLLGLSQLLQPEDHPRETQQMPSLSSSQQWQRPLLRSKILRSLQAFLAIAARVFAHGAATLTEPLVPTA
T1 sequence 2: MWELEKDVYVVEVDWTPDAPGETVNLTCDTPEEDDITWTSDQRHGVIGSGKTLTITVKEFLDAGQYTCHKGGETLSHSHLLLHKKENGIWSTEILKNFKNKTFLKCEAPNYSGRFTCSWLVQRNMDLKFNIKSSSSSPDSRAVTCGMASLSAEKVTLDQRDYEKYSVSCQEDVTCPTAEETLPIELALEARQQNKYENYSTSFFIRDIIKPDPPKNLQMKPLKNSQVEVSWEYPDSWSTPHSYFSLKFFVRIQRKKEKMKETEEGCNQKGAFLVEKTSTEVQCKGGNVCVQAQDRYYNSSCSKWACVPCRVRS
Description: (§1) rRfY-mIL-23S/mIL-12 neg Protein Binding Analysis. The dot blot binding assays previously described were performed throughout the selection to monitor the protein binding affinity of the pool. Trace ³²P-labeled RNA was combined with mIL-23 or mIL-12 and incubated at room temperature for 30 min in 1×PBS plus 0.1 mg/mL BSA for a final volume of 30 μL. The reaction was added to a dot blot apparatus (Schleicher and Schuell Minifold-1 Dot Blot, Acrylic). Binding curves were generated as described in previous sections. When a significant level of binding of RNA in the presence of mIL-23 was observed, the pool was cloned using the TOPO TA cloning kit (Invitrogen, Carlsbad, Calif.) according to the manufacturer's instructions. The Round 9 pool template was cloned, and 10 individual clones from the selection were assayed in an 8-point dot blot titration against mIL-23. […] Four of the 10 total clones screened bound especially to mIL-23 and mIL-12 at varying affinities.

[2] = molecular target: T2, IL-12 (mouse, p35/p40 heterodimer) (Mus musculus, UniProt P43431;P43432 SEQ:23-215,SEQ:23-335); assay: filter; 1X PBS, 0.1 mg/mL BSA, 30 min RT; settings: label: 32P
T2 sequence 1: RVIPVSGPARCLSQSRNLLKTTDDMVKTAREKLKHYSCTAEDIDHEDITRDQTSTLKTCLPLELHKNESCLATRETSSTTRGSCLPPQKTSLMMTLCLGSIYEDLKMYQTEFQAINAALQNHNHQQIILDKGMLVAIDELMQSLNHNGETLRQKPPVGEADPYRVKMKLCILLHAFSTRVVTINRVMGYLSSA
T2 sequence 2: T1 sequence 2
Description: as §1

[3] = molecular target: T3, IL-23 (human, p19/p40 heterodimer) (Homo sapiens, UniProt Q9NPF7;P29460 SEQ:20-189,SEQ:23-328); assay: competition; direct +tRNA 117 nM; settings: tags: R&D Systems, carrier free
Description: (§2) Several of the minimized constructs from the dRmY Selection 2 were also assayed in a competition format in which cold aptamer was titrated and competed away trace ³²P ATP labeled aptamer In the competition assay, the [IL-23] was held constant, the [trace labeled aptamer] was held constant, and the [unlabeled aptamer] was varied. The KD was calculated by fitting the following equation to the data: Fraction aptamer bound=amplitude*([aptamer]/(KD+[aptamer]))+background binding.
Table 25 below summarizes the minimized sequences and the parent clone from which they were derived, and Table 26 summarizes the binding characterization from direct binding assays (+/−tRNA) and competition binding assays for the minimized constructs tested.

[4] = molecular target: T3, IL-23 (human, p19/p40 heterodimer); assay: competition; direct +tRNA 69 nM; settings: tags: R&D Systems, carrier free
Description: The fraction aptamer bound vs. [IL-23] was used to calculate the KD by fitting the following equation to the data: Fraction aptamer bound=amplitude*([IL-23]/(KD+[IL-23]))+background binding.
as §2

[5] = molecular target: T3, IL-23 (human, p19/p40 heterodimer); assay: filter; non functional, lacks G doubles; settings: tags: R&D Systems, carrier free
[6] = molecular target: T3, IL-23 (human, p19/p40 heterodimer); assay: SPR; Biacore, IL-23 immobilized on CM3; HBS-P, 25 C; settings: tags: R&D Systems, carrier free
Description: All biosensor binding measurements were performed at 25° C. using a BIACORE 2000 equipped with a research-grade CM3 biosensor chip (BIACORE Inc. Piscataway, N.J.). Purified recombinant human IL-23 (R&D Systems, Minnapolis, Minn.) was immobilized to the biosensor surface using amino-coupling chemistry. To achieve this, the surfaces of two flow cells were first activated for 7 minutes with a 1:1 mixture of 0.1 M NHS (Nhydroxysuccinimide) and 0.4 M EDC (3-(N,Ndimethylamine) propyl-N-ethylcarbodiimide) at a flow rate of 5 μl/min. After surface activation, one flow cell was injected with 50 μg/ml of IL-23 at rate of 10 μl/minute for 15 minutes to allow for establishment of covalent bonds to the activated surface. Next, 1 M ethanolamine hydrochloride pH 8.5 was injected for 7 min at rate of 5 μl/min to inactivate residual esters. As a negative control, a blank flow cell was prepared by injecting 1 M ethanolamine hydrochloride pH 8.5 continuously for 7 minutes to inactivate residual esters, without protein injection.
For IL-23 binding, aptamers were serially diluted into HBS-P buffer (10 mM HEPES pH7.4, 150 mM NaCl, 0.005% Surfactant 20). […] Rate constant and dissociation constant were calculated using BIAevaluation software.

[7] = molecular target: T3, IL-23 (human, p19/p40 heterodimer); assay: cell_activity; IL-23/IL-18 induced IFN-gamma, PHA blasts; settings: tags: R&D Systems, carrier free
Description: (§3) PHA Blasts were isolated and prepared as described above. Once isolated, PHA Blasts were cultured for 4 days before use (with no re-feeding the night before use). After culturing for 4 days, an appropriate number of cells (enough for 0.5×10^6 cells per well) were collected, pelleted by centrifugation and washed with RPMI 1640 and 0.2% FBS (repeated twice). These cells were then serum starved by placement into 2, 150 mm sterile culture dishes with 25 mL of RPMI 1640-0.2% FBS each for 2-3 hours. Following serum starvation, cells were plated in a 96 well microtiter plate at a density of 0.5×10^6 cells per 200 μl of serum starved media.
(§4) IL-12/IL-18 or IL-23/IL-18 was used to induce IFN-γ production in PHA Blasts as follows. 10 μl of IL-23 (R&D Systems) at a concentration of 60 ng/mL (or 10 μl of IL-12 at a concentration of 20 ng/mL), and 10 μl of IL-18 (MBL) at a concentration of 200 ng/mL were added to the appropriate wells. […] Following incubation, 200 μl of supernatant was removed from each well and either flash frozen at −80° C., or quantified immediately for IFN-γ. An ELISA kit was used to quantify the IL-23/IL-18 and IL-12/IL-18 induced IFN-γ in PHA Blasts according to the manufacturer's recommended protocol (Recombinant human IFN-γ Quantikine Kit, R&D Systems, Minneapolis, Minn.). The colorimetric readout was quantified using a 96 well plate reader and absorbance values were graphed.

[8] = molecular target: IL-12 (human, p35/p40 heterodimer) (Homo sapiens, UniProt P29459;P29460 SEQ:57-253,SEQ:23-328); assay: cell_activity; IL-12/IL-18 induced IFN-gamma, PHA blasts
Description: as §3, §4

[9] = molecular target: T3, IL-23 (human, p19/p40 heterodimer); assay: cell_activity; Pathscan pSTAT3, PHA blasts; settings: tags: R&D Systems, carrier free
Description: (§5) PHA Blasts were isolated and prepared as described above and treated with hIL-23 at a final constant concentration of 6 ng/mL (R&D Systems, Minneapolis, Minn.) to induce STAT3 activation, instead of using 3 ng/mL as previously described with the TransAM™ assay. Clones were screened by using a 6-point […] titration from 0 to 700 nM in 3 fold dilutions in combination with a constant IL-23 concentration of 6 ng/mL of IL-23 (R&D Systems, Minneapolis, Minn.) to induce STAT3 activation, instead of using 3 ng/mL as previously described with the TransAM™ assay. Lysates of treated cells were prepared using the buffers provided by the Pathscan kit, and the assay was run according to the manufacturer's instructions. IC₅₀s for the full length clones were calculated from the dose response curves.

[10] = molecular target: T3, IL-23 (human, p19/p40 heterodimer); assay: filter; DPBS Ca Mg, 0.1 mg/mL BSA; settings: tags: R&D Systems, carrier free
Description: The dot blot binding assay previously described was used to characterize the relative potency of the majority of the aptamers synthesized. For KD determination, chemically synthesized aptamers were purified using denaturing polyacrylamide gel electrophoresis, 5′end labeled with γ-³²P ATP and were tested for direct binding to full human IL-23. An 8 point protein titration was used in the dot blot binding assay (either {100 nM, 30 nM, 10 nM, 3 nM, 1 nM, 300 pM, 100 pM, 0 pM} or {10 nM, 3 nM, 1 nM, 300 pM, 100 pM, 30 pM, 10 pM, 0 pM}) in Dulbecco's PBS (with Mg⁺⁺ and Ca⁺⁺) with 0.1 mg/mL BSA. KD values were calculated by fitting the equation y=(max/(1+K/protein))+yint using KaleidaGraph (KaleidaGraph v. 3.51, Synergy Software). Sequences of the ARC979 derivatives synthesized, purified and assayed for binding to IL-23 as well as the results of the protein binding characterization are tabulated below in Tables 29 and 30.

[11] = molecular target: T3, IL-23 (human, p19/p40 heterodimer); assay: cell_activity; Pathscan, +/-1; TransAM 40 nM; settings: tags: R&D Systems, carrier free; G4
Description: as §5

[12] = molecular target: T3, IL-23 (human, p19/p40 heterodimer); assay: filter; -tRNA; competition 8 nM; settings: tags: R&D Systems, carrier free
Description: These molecules were gel purified and assayed for IL-23 binding using the dot blot assay as described above and compared to each other and to the parent molecule, ARC979. An 8 point IL-23 titration (0 nM to 300 nM, 3 fold serial dilutions) was used in the binding assay.

T3 sequence (Q9NPF7 20-189, chain 1 of 2): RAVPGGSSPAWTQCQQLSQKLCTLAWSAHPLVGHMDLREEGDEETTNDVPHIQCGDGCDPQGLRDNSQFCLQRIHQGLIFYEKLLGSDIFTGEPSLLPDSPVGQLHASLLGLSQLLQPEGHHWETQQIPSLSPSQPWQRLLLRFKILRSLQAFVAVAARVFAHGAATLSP
T3 sequence (P29460 23-328, chain 2 of 2): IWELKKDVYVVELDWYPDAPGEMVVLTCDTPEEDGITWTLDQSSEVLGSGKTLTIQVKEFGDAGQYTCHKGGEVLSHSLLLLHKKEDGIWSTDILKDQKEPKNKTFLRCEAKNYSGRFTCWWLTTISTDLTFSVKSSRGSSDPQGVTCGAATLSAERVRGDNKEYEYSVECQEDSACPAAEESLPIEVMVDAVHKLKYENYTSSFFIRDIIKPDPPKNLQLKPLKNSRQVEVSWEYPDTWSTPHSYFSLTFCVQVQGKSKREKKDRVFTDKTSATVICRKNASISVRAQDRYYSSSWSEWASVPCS
Sequence of IL-12 (human, p35/p40 heterodimer) (P29459 23-219, chain 1 of 2): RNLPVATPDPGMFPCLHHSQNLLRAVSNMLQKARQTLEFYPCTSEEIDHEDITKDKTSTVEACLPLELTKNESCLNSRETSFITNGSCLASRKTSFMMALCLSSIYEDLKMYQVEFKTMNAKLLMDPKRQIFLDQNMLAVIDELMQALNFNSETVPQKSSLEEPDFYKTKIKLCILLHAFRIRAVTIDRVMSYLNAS
Sequence of IL-12 (human, p35/p40 heterodimer) (P29460 23-328, chain 2 of 2): as the sequence (P29460 23-328, chain 2 of 2) above

B1: AMX369.H1 (ARC1914) (ssRNA)
RNA: GGAGCGCACUCAGCCACCUGGGAAAAUCUGGGUCCCUGAGUUCUAACAGCAGAGAUUUUUCGACCUCUCUGCUAGC
modifications: 2'-F all C and U (rRfY)
[1]
  Kd: 23 nM
[2]
  Kd: 194 nM

## GGCAAGUAAUUGGGGAGUGCGGGCGGGG (mixed, deoxy A,G; 2'-OMe C,U) [ARC792]
[3]
  Kd: 11 nM

## GGCGGUACGGGGAGUGUGGGUUGGGGCCGG (mixed, deoxy A,G; 2'-OMe C,U) [ARC794]
[4]
  Kd: 14 nM

## CUACAAGGCGGUACGGGGAGUGUGG (mixed, deoxy A,G; 2'-OMe C,U) [ARC793]
[5]
  binding result: no binding

## ACAGGCAAGUAAUUGGGGAGUGCGGGCGGGGUGU (mixed, ARC1623 with 5'-amine-linked 40 kDa PEG; 2'-deoxy, 2'-OMe, PS, 3'-idT)
[6]
  Kd: ~2 nM

## ACAGGCAAGUAAUUGGGGAGUGCGGGCGGGGUGU (mixed, ARC1623 with 5' 40 kDa PEG; 3'-idT)
[7]
  IC50: ~4 nM
[8]
  IC50: ~122 nM

B2: ARC1624 (mixed)
RNA: ACAGGCAAGUAAUUGGGGAGUGCGGGCGGGGUGU
modifications: 2'-OMe C,U and G16,G17,G24,G25,G30,G31; other A,G deoxy; PS 25-26,27-28,28-29; 3'-idT [2'-OMe C2,C6,U10,U13,U14,G16,G17,U21,C23,G24,G25,C27,G30,G31,U32,U34; other A,G deoxy; PS 25-26,27-28,28-29 (N = PS linkage, left out); 3'-inverted dT 35]
[9]
  IC50: 2 nM

B3: ARC1620 (mixed)
RNA: B2 RNA
modifications: 2'-OMe C,U and G16,G17,G24,G25,G30,G31; other A,G deoxy; PS 2-3; 3'-idT [PS 2-3; 2'-OMe at 2,6,10,13,14,16,17,21,23,24,25,27,30,31,32,34; other A,G deoxy; 3'-inverted dT at 35]
[10]
  Kd: 0.4 nM

## ACAGGCAAGUAAUUGGGGAGUGCGGGCGGGGUGU (mixed, deoxy A,G; 2'-OMe C,U) [ARC979]
[11]
  IC50: 6 nM

B4: ARC1163 (mixed)
RNA: B2 RNA
modifications: deoxy A,G; 2'-OMe C,U; PS 21-22 [PS between 21-22; 2'-OMe C,U at 2,6,10,13,14,21,23,27,32,34; deoxy A,G at all other positions]
[12]
  Kd: 49 nM
